In the supplement of paper PMC10065799, “High-throughput profiling of sequence recognition by tyrosine kinases and SH2 domains using bacterial peptide display” (eLife, 2023):

What follows are sequences tested against c-Src SH2 (assay: SH2 binding enrichment of the phosphorylated peptide, bacterial display (enrichment ratio); higher = better substrate or ligand; peptides without Tyr show the background).
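Throughout, for SH2 binding enrichment of the phosphorylated peptide, bacterial display: peptide library displayed on the E. coli surface as eCPX fusions, selected cells deep-sequenced, score is each peptide's frequency after selection divided by its frequency in the input.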
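Throughout, for phosphorylation enrichment, bacterial display: 11-residue human phosphosite peptides and single-mutation variants displayed on the E. coli surface, counted by deep sequencing, each peptide's frequency after selection divided by its frequency in the unselected input library; frequency after pTyr selection over input frequency; kinase dosed for 20-30% of maximal phosphorylation in three min.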

Row | Sequence | SH2 binding enrichment
1 | AKKKMYSLKTK [AGXT_Y231_R233L] | 1.54
2 | ERFSYYGMKAV [SLC15A2_Y61] | 0.978
3 | QDEHGYISWCF [HSPB1_Y133_R136W] | 0.545
4 | RLGLQYSQGLV [EIF2B4_Y214] | 0.452
5 | CTTIHYMFMCN [TP53_Y234_N235M_YF] | 1
6 | MFFSTYDRDND [FGB_Y408] | 0.778
7 | QEALEYFMKQM [PIK3CA_Y1038] | 0.636
8 | KGSEGYLAATY [NF1_Y2503] | 0.473
9 | KGIDRYNPENL [EIF3K_Y21] | 0.524
10 | VDASFCGGRGV [ANTXR2_Y381_Y381C_YF] | 0.389
11 | ESKAGYRVPRS [CLDN7_Y195] | 0.544
12 | EAGKVYLKAAM [CBFB_Y96_P100A] | 0.462
13 | VHNLNYFKKTT [FGFR3_Y647_D646N_YF] | 0.377
14 | TACNPYKPPGP | 0.786
15 | NNDLCYWVLEL [IARS1_Y434_P437L] | 0.55
16 | KVGNGYISAAE [CALM2_Y100_D96V] | 0.53
17 | YETSHYLASPD [CTNND2_Y1217_P1218L] | 1.1

Row | Sequence | SH2 binding enrichment
18 | CTTIQYNFMCN [TP53_Y234_H233Q_YF] | 1.87
19 | FQNSLYAPDYS [FAM92A_Y226_R222Q] | 0.628
20 | ELTAKYLNYYQ [P3H4_Y181] | 1.38
21 | RPIEVYLCPEE [E2F3_Y349_G344R] | 0.559
22 | GEDDVYDSVPG [FGR_opt_2018] | 0.587
23 | MYQVQYNSSVD [LRFN1_Y458] | 0.514
24 | TFEYRYLEDQD [CNOT3_Y746_R750Q] | 0.66
25 | FSLIHYAGIVD [MYH7_Y582] | 5.22
26 | QRIHDYFEHRF [HCN4_Y554_YF] | 0.957
27 | FKEQGYHRLPP [RIN1_Y681_YF] | 0.742
28 | RSRQIYDAFIM [GRK3_Y109_YF] | 0.64
29 | LSSEMCVKSYT [F5_Y2149_Y2149C] | 0.451
30 | KIMVIYDGACQ [VWDE_Y1035_T1032M] | 0.455
31 | FRRITYFNWRH [PDE6B_Y556_H557Y_YF] | 0.363
32 | WEPFGFAVTRC [PTPRT_Y412_Y412F] | 0.368
33 | NAGAFYVLSTL [FLVCR2_Y325_A326V] | 0.489

Each sequence was assayed against Grb2 SH2 (UniProt P62993) in the same assay as above.
Grb2 SH2, sequence (P62993 whole entry, looked up): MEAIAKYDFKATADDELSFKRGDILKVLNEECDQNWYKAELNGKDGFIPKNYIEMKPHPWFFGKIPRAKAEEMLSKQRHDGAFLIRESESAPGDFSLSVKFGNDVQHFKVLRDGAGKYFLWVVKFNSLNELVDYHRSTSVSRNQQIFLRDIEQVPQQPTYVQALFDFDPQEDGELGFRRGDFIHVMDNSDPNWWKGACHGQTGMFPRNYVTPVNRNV

Row | Sequence | SH2 binding enrichment
34 | AKKKMYSLKTK [AGXT_Y231_R233L] | 1.2
35 | ERFSYYGMKAV [SLC15A2_Y61] | 0.877
36 | QDEHGYISWCF [HSPB1_Y133_R136W] | 0.64
37 | RLGLQYSQGLV [EIF2B4_Y214] | 0.955
38 | CTTIHYMFMCN [TP53_Y234_N235M_YF] | 1.38
39 | MFFSTYDRDND [FGB_Y408] | 0.845
40 | QEALEYFMKQM [PIK3CA_Y1038] | 0.667
41 | KGSEGYLAATY [NF1_Y2503] | 0.719
42 | KGIDRYNPENL [EIF3K_Y21] | 0.861
43 | VDASFCGGRGV [ANTXR2_Y381_Y381C_YF] | 0.728
44 | ESKAGYRVPRS [CLDN7_Y195] | 0.83
45 | EAGKVYLKAAM [CBFB_Y96_P100A] | 0.893
46 | VHNLNYFKKTT [FGFR3_Y647_D646N_YF] | 0.987
47 | TACNPYKPPGP | 1.07
48 | NNDLCYWVLEL [IARS1_Y434_P437L] | 0.664
49 | KVGNGYISAAE [CALM2_Y100_D96V] | 0.892
50 | YETSHYLASPD [CTNND2_Y1217_P1218L] | 1.11

Row | Sequence | SH2 binding enrichment
51 | CTTIQYNFMCN [TP53_Y234_H233Q_YF] | 2.22
52 | FQNSLYAPDYS [FAM92A_Y226_R222Q] | 1.2
53 | ELTAKYLNYYQ [P3H4_Y181] | 2.21
54 | RPIEVYLCPEE [E2F3_Y349_G344R] | 0.918
55 | GEDDVYDSVPG [FGR_opt_2018] | 0.85
56 | MYQVQYNSSVD [LRFN1_Y458] | 0.735
57 | TFEYRYLEDQD [CNOT3_Y746_R750Q] | 0.772
58 | FSLIHYAGIVD [MYH7_Y582] | 1.45
59 | QRIHDYFEHRF [HCN4_Y554_YF] | 0.847
60 | FKEQGYHRLPP [RIN1_Y681_YF] | 0.94
61 | RSRQIYDAFIM [GRK3_Y109_YF] | 0.66
62 | LSSEMCVKSYT [F5_Y2149_Y2149C] | 0.665
63 | KIMVIYDGACQ [VWDE_Y1035_T1032M] | 0.776
64 | FRRITYFNWRH [PDE6B_Y556_H557Y_YF] | 0.821
65 | WEPFGFAVTRC [PTPRT_Y412_Y412F] | 0.774
66 | NAGAFYVLSTL [FLVCR2_Y325_A326V] | 0.634

What follows are sequences tested against SHP2-C SH2 in the same assay as above.

Row | Sequence | SH2 binding enrichment
67 | AKKKMYSLKTK [AGXT_Y231_R233L] | 1.51
68 | ERFSYYGMKAV [SLC15A2_Y61] | 0.85
69 | QDEHGYISWCF [HSPB1_Y133_R136W] | 0.463
70 | RLGLQYSQGLV [EIF2B4_Y214] | 0.553
71 | CTTIHYMFMCN [TP53_Y234_N235M_YF] | 1.51
72 | MFFSTYDRDND [FGB_Y408] | 1.03
73 | QEALEYFMKQM [PIK3CA_Y1038] | 0.698
74 | KGSEGYLAATY [NF1_Y2503] | 0.614
75 | KGIDRYNPENL [EIF3K_Y21] | 0.785
76 | VDASFCGGRGV [ANTXR2_Y381_Y381C_YF] | 0.559
77 | ESKAGYRVPRS [CLDN7_Y195] | 0.699
78 | EAGKVYLKAAM [CBFB_Y96_P100A] | 0.781
79 | VHNLNYFKKTT [FGFR3_Y647_D646N_YF] | 0.678
80 | TACNPYKPPGP | 0.838
81 | NNDLCYWVLEL [IARS1_Y434_P437L] | 0.518
82 | KVGNGYISAAE [CALM2_Y100_D96V] | 0.546
83 | YETSHYLASPD [CTNND2_Y1217_P1218L] | 0.675

Row | Sequence | SH2 binding enrichment
84 | CTTIQYNFMCN [TP53_Y234_H233Q_YF] | 1.68
85 | FQNSLYAPDYS [FAM92A_Y226_R222Q] | 1.17
86 | ELTAKYLNYYQ [P3H4_Y181] | 1.03
87 | RPIEVYLCPEE [E2F3_Y349_G344R] | 0.809
88 | GEDDVYDSVPG [FGR_opt_2018] | 0.623
89 | MYQVQYNSSVD [LRFN1_Y458] | 0.748
90 | TFEYRYLEDQD [CNOT3_Y746_R750Q] | 0.478
91 | FSLIHYAGIVD [MYH7_Y582] | 19
92 | QRIHDYFEHRF [HCN4_Y554_YF] | 0.46
93 | FKEQGYHRLPP [RIN1_Y681_YF] | 0.77
94 | RSRQIYDAFIM [GRK3_Y109_YF] | 0.592
95 | LSSEMCVKSYT [F5_Y2149_Y2149C] | 0.452
96 | KIMVIYDGACQ [VWDE_Y1035_T1032M] | 0.597
97 | FRRITYFNWRH [PDE6B_Y556_H557Y_YF] | 1.99
98 | WEPFGFAVTRC [PTPRT_Y412_Y412F] | 0.694
99 | NAGAFYVLSTL [FLVCR2_Y325_A326V] | 0.6

The sequences below were run against FGFR3 (UniProt P22607) (assay: phosphorylation enrichment, bacterial display (enrichment ratio); higher = better substrate or ligand; peptides without Tyr show the background).
FGFR3, sequence (P22607 whole entry, looked up): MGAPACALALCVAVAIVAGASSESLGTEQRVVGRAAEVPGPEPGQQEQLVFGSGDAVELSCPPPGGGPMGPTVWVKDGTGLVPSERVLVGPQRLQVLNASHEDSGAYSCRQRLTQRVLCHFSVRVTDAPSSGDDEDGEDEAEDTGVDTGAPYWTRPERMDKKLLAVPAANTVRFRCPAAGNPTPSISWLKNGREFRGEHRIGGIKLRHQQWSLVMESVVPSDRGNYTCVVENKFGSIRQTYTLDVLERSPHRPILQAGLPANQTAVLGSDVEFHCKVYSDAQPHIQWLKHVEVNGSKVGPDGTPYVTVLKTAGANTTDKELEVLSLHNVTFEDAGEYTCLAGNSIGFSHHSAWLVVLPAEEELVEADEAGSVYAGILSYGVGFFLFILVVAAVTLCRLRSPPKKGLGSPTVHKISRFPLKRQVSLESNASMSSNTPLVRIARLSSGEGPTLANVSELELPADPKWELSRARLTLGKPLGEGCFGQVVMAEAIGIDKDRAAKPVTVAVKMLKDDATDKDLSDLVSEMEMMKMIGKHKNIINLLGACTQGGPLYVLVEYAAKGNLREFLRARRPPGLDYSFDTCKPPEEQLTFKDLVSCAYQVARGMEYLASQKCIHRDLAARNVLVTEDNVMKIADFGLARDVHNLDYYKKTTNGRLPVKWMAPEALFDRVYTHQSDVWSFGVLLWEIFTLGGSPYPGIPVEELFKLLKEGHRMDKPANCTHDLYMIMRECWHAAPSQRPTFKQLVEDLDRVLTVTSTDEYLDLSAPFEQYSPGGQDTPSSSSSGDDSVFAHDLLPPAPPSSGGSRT

Row | Sequence | phosphorylation enrichment
100 | AKKKMYSLKTK [AGXT_Y231_R233L] | 0.853
101 | ERFSYYGMKAV [SLC15A2_Y61] | 4.31
102 | QDEHGYISWCF [HSPB1_Y133_R136W] | 1.8
103 | RLGLQYSQGLV [EIF2B4_Y214] | 0.851
104 | CTTIHYMFMCN [TP53_Y234_N235M_YF] | 0.659
105 | MFFSTYDRDND [FGB_Y408] | 0.601
106 | QEALEYFMKQM [PIK3CA_Y1038] | 0.704
107 | KGSEGYLAATY [NF1_Y2503] | 0.494
108 | KGIDRYNPENL [EIF3K_Y21] | 0.564
109 | VDASFCGGRGV [ANTXR2_Y381_Y381C_YF] | 0.629
110 | ESKAGYRVPRS [CLDN7_Y195] | 0.352
111 | EAGKVYLKAAM [CBFB_Y96_P100A] | 0.742
112 | VHNLNYFKKTT [FGFR3_Y647_D646N_YF] | 0.369
113 | TACNPYKPPGP | 0.437
114 | NNDLCYWVLEL [IARS1_Y434_P437L] | 7.8
115 | KVGNGYISAAE [CALM2_Y100_D96V] | 0.588
116 | YETSHYLASPD [CTNND2_Y1217_P1218L] | 0.633

Row | Sequence | phosphorylation enrichment
117 | CTTIQYNFMCN [TP53_Y234_H233Q_YF] | 0.689
118 | FQNSLYAPDYS [FAM92A_Y226_R222Q] | 0.926
119 | ELTAKYLNYYQ [P3H4_Y181] | 0.71
120 | RPIEVYLCPEE [E2F3_Y349_G344R] | 1.3
121 | GEDDVYDSVPG [FGR_opt_2018] | 0.783
122 | MYQVQYNSSVD [LRFN1_Y458] | 0.686
123 | TFEYRYLEDQD [CNOT3_Y746_R750Q] | 0.823
124 | FSLIHYAGIVD [MYH7_Y582] | 0.714
125 | QRIHDYFEHRF [HCN4_Y554_YF] | 3.23
126 | FKEQGYHRLPP [RIN1_Y681_YF] | 0.528
127 | RSRQIYDAFIM [GRK3_Y109_YF] | 0.7
128 | LSSEMCVKSYT [F5_Y2149_Y2149C] | 1.04
129 | KIMVIYDGACQ [VWDE_Y1035_T1032M] | 1.07
130 | FRRITYFNWRH [PDE6B_Y556_H557Y_YF] | 0.476
131 | WEPFGFAVTRC [PTPRT_Y412_Y412F] | 0.845
132 | NAGAFYVLSTL [FLVCR2_Y325_A326V] | 0.699
